Source: US20130209454A1

Tests used:
Experiment in all cases: cell-based or functional assay
[1] = target: HIV-1 strain AC10.0.29 envelope (gp120) (HIV-1)
[2] = target: HIV-1 strain 1006_11_C3_1601 envelope (gp120) (HIV-1)
[3] = target: HIV-1 Env of strain Q259.d2.17 (HIV-1)
[4] = target: HIV-1 Env of strain 89-F1_2_25 (HIV-1)
[5] = target: HIV-1 strain HIV-16845-2.22 envelope (gp120) (HIV-1)
[6] = target: HIV-1 Env of strain R2184.c04 (HIV-1)
[7] = target: HIV-1 Env of strain WITO4160.33 (HIV-1)
[8] = target: HIV-1 strain 1056_10_TA11_1826 envelope (gp120) (HIV-1)
[9] = target: HIV-1 Env of strain Ce2060_G9 (HIV-1)
[10] = target: HIV-1 Env of strain Ce2010_F5 (HIV-1)
[11] = target: HIV-1 strain CNE58 envelope (gp120) (HIV-1)
[12] = target: HIV-1 Env of strain THRO4156.18 (HIV-1)
[13] = target: HIV-1 strain 231966.c02 envelope (gp120) (HIV-1)
[14] = target: HIV-1 Env of strain CNE58 (HIV-1)
[15] = target: HIV-1 Env of strain C2101.c01 (HIV-1)
[16] = target: HIV-1 Env of strain C3347.c11 (HIV-1)
[17] = target: HIV-1 strain Ce0682_E4 envelope (gp120) (HIV-1)
[18] = target: HIV-1 strain ZM247v1(Rev-) envelope (gp120) (HIV-1)
[19] = target: HIV-1 strain Ce2060_G9 envelope (gp120) (HIV-1)
[20] = target: HIV-1 Env of strain CAAN5342.A2 (HIV-1)
[21] = target: HIV-1 Env of strain CNE20 (HIV-1)
[22] = target: HIV-1 strain T251-18 envelope (gp120) (HIV-1)
[23] = target: HIV-1 strain Q769.d22 envelope (gp120) (HIV-1)
[24] = target: HIV-1 strain THRO4156.18 envelope (gp120) (HIV-1)
[25] = target: HIV-1 strain CNE30 envelope (gp120) (HIV-1)
[26] = target: HIV-1 Env of strain TROJO4551.58 (HIV-1)
[27] = target: HIV-1 strain Ce703010054_2A2 envelope (gp120) (HIV-1)
[28] = target: HIV-1 strain CAAN5342.A2 envelope (gp120) (HIV-1)
[29] = target: HIV-1 strain SC422661.8 envelope (gp120) (HIV-1)
[30] = target: HIV-1 Env of strain CNE21 (HIV-1)
[31] = target: HIV-1 strain QH0692.42 envelope (gp120) (HIV-1)
[32] = target: HIV-1 strain 62357_14_D3_4589 envelope (gp120) (HIV-1)
[33] = target: HIV-1 strain Q461.e2 envelope (gp120) (HIV-1)
[34] = target: HIV-1 strain R1166.c01 envelope (gp120) (HIV-1)
[35] = target: HIV-1 Env of strain SC422661.8 (HIV-1)
[36] = target: HIV-1 Env of strain 6811.v7.c18 (HIV-1)
[37] = target: HIV-1 Env of strain Du422.1 (HIV-1)
[38] = target: HIV-1 strain 0330.v4.c3 envelope (gp120) (HIV-1)
[39] = target: HIV-1 Env of strain 3817.v2.c59 (HIV-1)
[40] = target: HIV-1 Env of strain HIV-16845-2.22 (HIV-1)
[41] = target: HIV-1 strain ZM233M.PB6 envelope (gp120) (HIV-1)
[42] = target: HIV-1 Env of strain ZM214M.PL15 (HIV-1)
[43] = target: HIV-1 strain CAP45.2.00.G3 envelope (gp120) (HIV-1)
[44] = target: HIV-1 strain CAP210.2.00.E8 envelope (gp120) (HIV-1)
[45] = target: HIV-1 strain ZM249M.PL1 envelope (gp120) (HIV-1)
[46] = target: HIV-1 Env of strain 231965.c01 (HIV-1)
[47] = target: HIV-1 Env of strain T255-34 (HIV-1)
[48] = target: HIV-1 Env of strain CNE17 (HIV-1)
[49] = target: HIV-1 Env of strain Q23.17 (HIV-1)
[50] = target: HIV-1 strain CNE53 envelope (gp120) (HIV-1)

B1: NIH45-46^G54F IgG (antibody, name in Kabat numbering, V domains shown)
VH: QVRLSQSGGQMKKPGESMRLSCRASGYEFLNCPINWIRLAPGRRPEWMGWLKPRFGAVNYARKFQGRVTMTRDVYSDTAFLELRSLTSDDTAVYFCTRGKYCTARDYYNWDFEHWGRGAPVTVSS
VL: EIVLTQSPATLSLSPGETAIISCRTSQSGSLAWYQQRPGQAPRLVIYSGSTRAAGIPDRFSGSRWGADYNLSISNLESGDFGVYYCQQYEFFGQGTKVQVDI
B1 showed a neutralization IC80 [1] of 1.12 µg/mL, a neutralization IC80 [2] of 0.024 µg/mL and a neutralization IC50 [3] of 0.009 µg/mL. For the same binder, the neutralization IC50 [4] was greater than 50 µg/mL, the neutralization IC80 [5] was 2.75 µg/mL and the neutralization IC50 [6] was 0.015 µg/mL. The neutralization IC50 [7] was 0.02 µg/mL, the neutralization IC80 [8] was 0.283 µg/mL and the neutralization IC50 [9] was 0.022 µg/mL. It also gave a neutralization IC50 [10] of 0.046 µg/mL, a neutralization IC80 [11] of 0.11 µg/mL and a neutralization IC50 [12] of 0.89 µg/mL. It also gave a neutralization IC80 [13] of 0.24 µg/mL, a neutralization IC50 [14] of 0.04 µg/mL and a neutralization IC50 [15] of 0.11 µg/mL. It also gave a neutralization IC50 [16] of 0.015 µg/mL, a neutralization IC80 [17] of 0.056 µg/mL and a neutralization IC80 [18] of 2.45 µg/mL. For the same binder, the neutralization IC80 [19] was 0.085 µg/mL, the neutralization IC50 [20] was 0.1 µg/mL and the neutralization IC50 [21] was 0.53 µg/mL. The neutralization IC80 [22] was 1.38 µg/mL, the neutralization IC80 [23] was 0.023 µg/mL and the neutralization IC80 [24] was 3.01 µg/mL. It also gave a neutralization IC80 [25] of 0.348 µg/mL, a neutralization IC50 [26] of 0.03 µg/mL and a neutralization IC80 [27] of 0.07 µg/mL. For the same binder, the neutralization IC80 [28] was 0.28 µg/mL, the neutralization IC80 [29] was 0.1 µg/mL and the neutralization IC50 [30] was 0.12 µg/mL. For the same binder, the neutralization IC80 [31] was 1.65 µg/mL, the neutralization IC80 [32] was 0.14 µg/mL and the neutralization IC80 [33] was 0.135 µg/mL. For the same binder, the neutralization IC80 [34] was 1.32 µg/mL, the neutralization IC50 [35] was 0.04 µg/mL and the neutralization IC50 [36] was 0.017 µg/mL. For the same binder, the neutralization IC50 [37] was greater than 50 µg/mL, the neutralization IC80 [38] was 0.13 µg/mL and the neutralization IC50 [39] was greater than 50 µg/mL. For the same binder, the neutralization IC50 [40] was 0.59 µg/mL, the neutralization IC80 [41] was 0.99 µg/mL and the neutralization IC50 [42] was 0.09 µg/mL. The neutralization IC80 [43] was greater than 50 µg/mL, the neutralization IC80 [44] was greater than 50 µg/mL and the neutralization IC80 [45] was 0.016 µg/mL. The neutralization IC50 [46] was 0.022 µg/mL, the neutralization IC50 [47] was 0.03 µg/mL and the neutralization IC50 [48] was 0.075 µg/mL. The neutralization IC50 [49] was 0.03 µg/mL and the neutralization IC80 [50] was 0.024 µg/mL.
